Entries after “also recorded” stand apart in the source; their conditions may differ.
Key:
HLA-A2 of T2 cells = biological target: T1, HLA-A2 of T2 cells (Homo sapiens, UniProt P04439, D140Y/D185E/D98H/E176V/E277Q/G131W/G231S/I119V/I121R/I166T/I218V/L300P/L318F/N151K/N90K/P208A/P217A/Q86G/Q94H/R138H/R169H/T345S); experiment: Reactivity of MA2.1 mAb with T2 cells after culture with peptide (immunofluorescence, FL1); format: cell-based; details: for FL1 of T2 cells stained with MA2.1 mAb: peptide 50 μg/ml, overnight culture in IMDM-FCS; for reactivity of MA2.1 mAb with HLA-A2: study repeated with peptides dissolved in DMSO
T1 construct: cell surface expression of HLA-A2 is lower (30-40%) than in normal LBL lines transfected with HLA-A2; endogenous in cells; host or cells: T2 (transport deletion mutant) human lymphoblastoid cells, obtained from Dr. Peter Creswell
Protocol: FIG. 5A. Effects of HER-2 peptides on reactivity of MA2.1 mAb with T2 cells. Fluorescence analysis and determination of FL1 were performed as described (Stauss et al., 1992). Peptides were added to T2 cells at 50 μg/ml (final concentration). After overnight culture, in IMDM-FCS, cells were washed and the levels of HLA-A2 expression were determined using HLA-A2 specific mAb.
mAbs to CD3 (OKT3-FITC), CD4 (OKT4-FITC) and CD8 (OKT8-FITC) were obtained from Ortho Diagnostic (Ortho, Raritan, N.J.), mAb W6/32 (anti-HLA, -A, -B, -C) from Dako (Dako-Dakopatts, Denmark); HLA-A2 reacting mAb BB7.2 and MA2.1 from ATCC. Immunofluorescence studies were performed as described in Example 1.
To determine whether these peptides and longer analogs affect HLA-A2 conformation as an indication of HLA-A2 binding, the effects of HER-2 peptides on the reactivity of conformationally dependent mAb MA2.1 and BB.7.2 were examined with HLA-A2 of T2 cells. The human cell line T2 has a defect affecting endogenous peptide loading of MHC class I molecules. As a consequence, cell surface expression of HLA-A2 is lower (30-40%) than in normal LBL lines transfected with HLA-A2 (e.g., C1R) but the reactivity of MA2.1 and BB.7.2 mAb is increased when certain HLA-A2 binding peptides are added to the culture medium (Anderson et al., 1993). Although most human MHC class I molecules cannot be induced at the low temperatures used for their murine counterparts because of fundamental structural differences between human and mouse class I (Anderson et al., 1993), the fact that they express few endogenous (mainly signal) peptides (Zweerink et al., 1993) increases the sensitivity of detection of peptide-HLA-A2 interaction.

[1] = biological target: T2, HLA-A2 on indicator T2 cells (Homo sapiens, UniProt P04439, D140Y/D185E/D98H/E176V/E277Q/G131W/G231S/I119V/I121R/I166T/I218V/L300P/L318F/N151K/N90K/P208A/P217A/Q86G/Q94H/R138H/R169H/T345S); experiment: Stabilization of HLA-A2 expression on indicator line T2; format: cell-based; details: indicator T2 cells
T2 construct: cell surface expression of HLA-A2 is lower (30-40%) than in normal LBL lines transfected with HLA-A2; endogenous in cells; host or cells: T2 (transport deletion mutant) human lymphoblastoid cells, obtained from Dr. Peter Creswell
Text: Since HER-2 is a self-antigen, during thymic selection, a number of T-cells carrying receptors with high affinity for the HLA-peptide complex are silenced either by elimination ro tolerization. A pre-condition for induction of a high affinity TCR-(MHC+peptide) interactions, is a stable (MHC+peptide) complex. […] However, stabilization of HLA-Class I binding by exogenously added peptide is dependent on introduction of dominant anchors in positions P2 and P9 which are not recognized by TCR.
Peptide D113, […] (SEQ ID NO:17), is the natural nonapeptide […].

C1R:A2 cells [2] = experiment: In vitro induction of peptide-reactive CTL from PBMC, 51Cr release on peptide-pulsed C1R:A2; format: cell-based, human; details: PBMC stimulated with the peptide
CTL-34 = experiment: Recognition of HER-2 peptides by ovarian tumor associated CTL (lysis of peptide-sensitized targets); format: cell-based, human
Protocol: Target cells were labeled with ^51Cr (Na^51CrO4; Amersham, Arlington Heights, Ill.) for 90 min at 37° C. (Ioannides et al., 1991; Ioannides et al., 1991), or overnight in RPMI medium, containing 10% FCS, 100 μg/ml L-glutamine and 40 μg/ml gentamycin (RPMI-FCS), then washed and incubated with the effector cells in complete RPMI-FCS in an incubator with 5% CO2. Targets were incubated either with 25 μM of peptide overnight during labeling, or with 10 μM peptide for 2 h at 37° C. in RPMI-FCS, then washed three times before being incubated with effector cells. Separate controls for spontaneous and total lysis of targets were made for each peptide pulsed target (Ioannides et al., 1993; Fisk et al., 1994; Gammon et al., 1992). After 4-5 h of incubation 100 μl of supernatant were collected and counted. Percent lysis was calculated from the formula: 100×[(E−S)/(T−S)], were E=experimental release, S=release in the absence of CTL, T=release in 2 M HCl.

three HLA-A2+ CTL lines = experiment: Recognition of nonapeptides by CTLs associated with and lysing ovarian tumors; format: cell-based, human; details: for CTL lines recognizing the peptide: of three HLA-A2+ CTL lines; for designation based on the levels of lysis induced: three HLA-A2+ CTL lines
C1R:A2 cells [3] = experiment: Ag specificity of the 41.CD8+ CTL line on peptide-pulsed targets; format: cell-based, human; details: peptide-pulsed C1R:A2, E:T 10:1
Protocol: FIG. 2A. Ag specificity of the 41.CD8^+ CTL line. C1R:A2 cells were pre-pulsed with either HER-2 peptides or control MUC-1 peptides before being incubated with effectors. The effector to target ratio was 10:1. C1R:A1 and C1R:A3 targets were pre-pulsed with the same peptides in the same conditions as C1R:A2 cells. Results for C1R:A1 and C1R:A3 show the difference between specific lysis of targets preincubated with peptides and control C1R:A1 and C1R:A3 targets. Specific lysis of control C1R:A1 and C1R:A3 cells was less than 10% at the same E:T ratio. Shown in FIG. 2A are results after 4 hrs' incubation.
(§1) Tumor cells and fibroblasts were labeled with 200 μCi of ^51Cr (Na^51CrO4; Amersham, Arlington Heights, Ill.) for 90 min at 37° C. (Ioannides et al., 1991). Lymphoblastoid cells and HLA-A2 transfectants were labeled overnight in RPMI-FCS, then washed three times and incubated with effector cells in RPMI-FCS in an incubator with 5%. CO2 (Bednarek et al., 1991; Gammon et al., 1992). When peptide recognition was determined, targets were incubated with 25 μM of peptides overnight during ^51Cr labeling or with 10 μM peptide for 2 h at 37° C. in RPMI-FCS then washed three times before being incubated with effector cells. Separate controls for spontaneous and total lysis were made for each peptide-pulsed target (Ioannides et al., 1991; Bednarek et al., 1991; Gammon et al., 1992). After 4-5 h, 100 μl of supernatant was collected and counted. To determine maximum lysis in 20-h assays, plates were left undisturbed in the incubator and the supernatant was collected after overnight incubation. For cold target inhibition studies, C1R:A2 cells were preincubated with HER-2 or control peptides overnight, then washed and admixed with ^51Cr-labeled targets at 2:1 and 6:1 (cold:hot targets) ratios. Percentage lysis was calculated from the formula: 100×[(E−S)/(T−S)], where E is experimental release, S is release in the absence of CTL, and T is release in 2 M HCl.
These cultures were propagated and expanded by periodic cycles of restimulation with peptide-pulsed fresh autologous PBMC as antigen-presenting cells. After the fourth stimulation cells were gradually adapted to growth in RPMI-FCS by replacing 25% of the culture medium every 3 days with RPMI-FCS over a period of 2 weeks. CD3^+CD8^+CD4^− cells were isolated from bulk CTL cultures by positive selection on anti-CD8 mAb-coated culture flasks (AIS Micro CELLector, Applied Immune Sciences, Menlo Park, Calif.) as described (Letessier et al., 1991). Isolated CD8^+ cells were restimulated with HER-2 peptide-pulsed PBMC, either autologous or in some instances allogeneic that matched only HLA-A2 with the responding cells. […]

[4] = system: OVA-16 (HLA-A2+, HER-2high) ovarian tumor; experiment: Cold target inhibition of OVA-16 lysis by 41.CD8+ CTL with peptide-pulsed C1R:A2 cells; format: cell-based, human; details: cold:hot 2:1, E:T 10:1, 4- and 20-h assays
Protocol: (§2) FIG. 4A. Target specificity of the 41.CD8^+ CTL were tested for the ability to lyse 5^1Cr-labeled OVA-16 at an E:T ratio of 10:1. C1R:A2 cells (A2.1) were incubated with synthetic peptides (D125, C43, C85), washed, and used in cold target inhibition studies at a cold:hot ratio of 2:1. Cytotoxicity studies were performed for 5 hr. Results represent the mean of three determinations. The variability between samples was less than 10%. The differences between determination are statistically significant (P<0.03) as determined by Student's t test. Percentage inhibition is indicated in parentheses.
as §2, with “FIG. 4B.” for “FIG. 4A.”, “lyse ^51Cr-labeled” for “lyse 5^1Cr-labeled”, “for 20” for “for 5”
as §1
To confirm that the 41.CD8^+ CTL line recognizes epitopes on HER-2^high tumors contained on peptides used for stimulation, cold target inhibition studies were performed. […]

RLLYQGCQVV [Peptide D114, HER-2:47-56(48H→L) analog]
FL1 of T2 cells stained with MA2.1 mAb (HLA-A2 of T2 cells): increased FL1 even further; also recorded: higher increase in reactivity of MA2.1 mAb with HLA-A2 than D96/D97 | reactivity of MA2.1 mAb with HLA-A2 (HLA-A2 of T2 cells): unable to increase reactivity | stabilization of HLA-A2 [1]: little improvement on stabilization of HLA-A2 | Ag specificity of CTL response induced by the peptide (C1R:A2 cells [2]): lacked Ag specificity

GLYQGCQVV [Peptide D115, HER-2:48-56(48H→G) analog]
FL1 of T2 cells stained with MA2.1 mAb (HLA-A2 of T2 cells): increased FL1 even further; also recorded: higher increase in reactivity of MA2.1 mAb with HLA-A2 than D96/D97 | reactivity of MA2.1 mAb with HLA-A2 (HLA-A2 of T2 cells): unable to increase reactivity | stabilization of HLA-A2 [1]: significantly higher improvement | Ag specificity of CTL response induced by the peptide (C1R:A2 cells [2]): less specific CTL than D96/D97

QLQVFETLEEI [Peptide D122, HER-2:396-406]
FL1 of T2 cells stained with MA2.1 mAb (HLA-A2 of T2 cells): increased the FL1 only slightly

QLMPYGCLL [Peptide E71, HER-2:798-806]
% of C85 (target lysis by CTL in the presence of peptide as % of positive control C85) (CTL-34): 0.600 % of C85 | CTL lines recognizing the peptide (three HLA-A2+ CTL lines): 2/3 | designation based on the levels of lysis induced (three HLA-A2+ CTL lines): high

GLTSAPDTRV [Peptide D125, control analog of Muc-1 core peptide (Muc-1:8-17) with introduced HLA-A2 anchors, reference compound]
recognition by 41.CD8+ CTL line (C1R:A2 cells [3]): at a much lesser extent | inhibition of tumor lysis by peptide-pulsed cold targets [4]: inability of C1R:A2 cells alone or pulsed with D125 to mediate the same inhibition

ELVSEFSKV [Peptide C83, C85 analog with strengthened P9 and P8]
FL1 of T2 cells stained with MA2.1 mAb (HLA-A2 of T2 cells): did not increase further the FL1

SLADPAHGV [Peptide D132, control analog of Muc-1 core peptide with introduced P2 anchor, reference compound]
recognition by 41.CD8+ CTL line (C1R:A2 cells [3]): at a much lesser extent

SLALMLLWL [Peptide E40, reference compound]
FL1 of T2 cells stained with MA2.1 mAb (HLA-A2 of T2 cells): failed to induce an increase in FL1

DLGMGAAKGL [Peptide D99, decapeptide HER-2:1089-1098]
FL1 of T2 cells stained with MA2.1 mAb (HLA-A2 of T2 cells): slight increase in FL1

EIWTHSTKV [Peptide E39, reference compound]
FL1 of T2 cells stained with MA2.1 mAb (HLA-A2 of T2 cells): moderate increase in FL1

LQVFETLEEITGYL [Peptide D120, HER-2:397-410]
FL1 of T2 cells stained with MA2.1 mAb (HLA-A2 of T2 cells): increased the FL1 only slightly

CLTSTVQLV [Peptide E90, HER-2:788-796]
% of C85 (target lysis by CTL in the presence of peptide as % of positive control C85) (CTL-34): 1.149 % of C85

LVSEFSRMARDPQ [Peptide B69, HER-2:972-984]
FL1 of T2 cells stained with MA2.1 mAb (HLA-A2 of T2 cells): failed to significantly increase FL1

PLQPEQLQV [Peptide E77, HER-2:391-399]
% of C85 (target lysis by CTL in the presence of peptide as % of positive control C85) (CTL-34): 0.300 % of C85 | CTL lines recognizing the peptide (three HLA-A2+ CTL lines): 2/3 | designation based on the levels of lysis induced (three HLA-A2+ CTL lines): moderate

LLSLALMLL [Peptide E41, reference compound]
FL1 of T2 cells stained with MA2.1 mAb (HLA-A2 of T2 cells): failed to induce an increase in FL1

VLVKSPNHV [Peptide E89, HER-2:851-859]
% of C85 (target lysis by CTL in the presence of peptide as % of positive control C85) (CTL-34): 1.149 % of C85 | CTL lines recognizing the peptide (three HLA-A2+ CTL lines): 2/3 | designation based on the levels of lysis induced (three HLA-A2+ CTL lines): high

NLGPWIQQV [Peptide E38, reference compound]
FL1 of T2 cells stained with MA2.1 mAb (HLA-A2 of T2 cells): very high increase in FL1

RIAWARTEL [Peptide E37, reference compound]
FL1 of T2 cells stained with MA2.1 mAb (HLA-A2 of T2 cells): failed to affect MA2.1 epitope expression
